In patent US6630572:
“And” between values parts separate entries of the source, which are not always exact repeats. Identical values can stand only once.

Columns and labels:
[1] = target: high-affinity cell surface thrombin receptor on NIL cells (hamster fibroblasts) (hamster); experiment: cell-based or functional assay
[2] = target: high-affinity cell surface thrombin receptor on mouse embryo (ME) cells (mouse) (UniProt P30558); experiment: cell-based or functional assay
[3] = target: high-affinity cell surface thrombin receptor on mouse embryo (ME) cells (mouse) (UniProt P30558); experiment: competition with [^125I]-alpha-thrombin (1 nM) on quiescent ME cells
[4] = target: high-affinity cell surface thrombin receptor on mouse embryo (ME) cells (mouse) (UniProt P30558); experiment: competition with [^125I]-alpha-thrombin (1 nM) on quiescent ME cells; at 40 nM peptide
[5] = target: high-affinity cell surface thrombin receptor on mouse embryo (ME) cells (mouse) (UniProt P30558); experiment: competition with 0.3 nM [^125I]-alpha-thrombin on ME cells; p508-530 from 8 to 4000 nM
[6] = target: high-affinity cell surface thrombin receptor on mouse embryo (ME) cells (mouse) (UniProt P30558); experiment: Scatchard analysis of direct binding of [^125I]-labelled peptide to cells (data not shown)
[7] = target: high-affinity cell surface thrombin receptor on mouse embryo (ME) cells (mouse) (UniProt P30558); experiment: competition with [^125I]-alpha-thrombin (1 nM) for specific binding to quiescent ME cells, 23 C
[8] = target: high-affinity cell surface thrombin receptor on mouse embryo (ME) cells (mouse) (UniProt P30558); experiment: competition with [^125I]-alpha-thrombin on ME cells
[9] = target: high-affinity cell surface thrombin receptor on mouse embryo (ME) cells (mouse) (UniProt P30558); experiment: competition with [^125I]-alpha-thrombin on ME cells; reference p508-530
[10] = target: high-affinity cell surface thrombin receptor on mouse embryo (ME) cells (mouse) (UniProt P30558); experiment: competition with [^125I]-alpha-thrombin (1 nM) on quiescent ME cells; at 800 nM peptide

Row | Substance | increase in DNA synthesis over controls in NIL cells in the presence of 25 ng/ml PMA [1] [fold] | concentration of p508-530 at which stimulation of ME cells was observed [2] | increase in incorporation of [^3H]-thymidine into DNA in ME cells, 0.1 uM p508-530 with 2 nM alpha-thrombin, against cultures treated with alpha-thrombin alone [2] [fold] | increase in incorporation of [^3H]-thymidine into DNA in ME cells, 0.1 uM p508-530 with 2 nM alpha-thrombin, against untreated cultures [2] [fold] | concentration at Maximal % Inhibition [3] [nM] | Maximal % Inhibition [4] [%] | percent of specific [^125I]-alpha-thrombin binding competed [5] [%] | Kd [6] [nM] | Concentration Required for 30% Inhibition [7] [nM] | percent of [^125I]-alpha-thrombin binding competed [8] [%] | fold higher concentration for 30% inhibition than p508-530 [9] [fold] | Maximal % Inhibition [10] [%]
1 | synthetic peptide p508-530 (residues 508 to 530 of human prothrombin) | 3.5 | 12.5 nM and 100 nM | > 2 | 6 | 40 | 78 | 30 to 70 | 60 | 6 | – | – | –
2 | synthetic peptide p519-530 (residues 519 to 530 of the B-chain region of human prothrombin) | – | – | – | – | 800 | – | – | – | 200 | 30 to 50 | 33 | 51
